Where two headings read alike, the source gives them in different places.

What is called Kd is the constant that tells how readily two partners part at equilibrium.

Assay [1] addresses NKG2D (Homo sapiens) (UniProt P26718). Particulars: cited from earlier work.
Assay [2] concerns the target NKG2D (in the affinity measurement) (UniProt O54709).
Assay [3] addresses NKG2D (Homo sapiens) (UniProt P26718). Particulars: cited from earlier work. The source holds these as a separate data set.

Sequence of UniProt O54709 (O54709 whole entry): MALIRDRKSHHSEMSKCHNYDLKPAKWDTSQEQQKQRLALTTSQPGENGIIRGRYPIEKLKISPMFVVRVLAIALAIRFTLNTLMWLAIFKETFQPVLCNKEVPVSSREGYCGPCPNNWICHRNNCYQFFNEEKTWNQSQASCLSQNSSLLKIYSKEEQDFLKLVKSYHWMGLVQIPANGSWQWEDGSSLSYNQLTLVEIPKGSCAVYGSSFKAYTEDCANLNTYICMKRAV
Sequence of UniProt P26718 (P26718 whole entry): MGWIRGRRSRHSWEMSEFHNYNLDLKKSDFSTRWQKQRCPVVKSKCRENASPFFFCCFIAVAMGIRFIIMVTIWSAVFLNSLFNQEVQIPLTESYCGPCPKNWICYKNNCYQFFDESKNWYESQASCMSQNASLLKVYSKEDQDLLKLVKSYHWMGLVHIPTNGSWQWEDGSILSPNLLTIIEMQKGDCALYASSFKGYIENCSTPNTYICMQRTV

Turning to MICA (from UniProt Q29983), the Kd with NKG2D (Homo sapiens) [1] was 1000 nM.
In turn, shed HA-MULT1 (domain or fragment) returned a dissociation constant Kd in assay [2] of 13 nM.
Consider MICB (from UniProt Q29980), for which the Kd with NKG2D (Homo sapiens) [3] was 1000 nM.
“secMULT1 (secreted ectodomain fragment of HA-MULT1) (domain or fragment)”: the Kd in assay [2] is 19 nM.

The values are drawn from paper PMC4856222.
